Drawing on patent publication US20110027284A1 (Novartis, published 2011), this text covers Kd for 2 molecules.

This assay concerns the target T1, recombinant human NiG (human, UniProt Q9NQC3 186-1004).
T1 construct: Recombinant fragment, amine-coupled to a CM5 chip; also called hNiG; human NiG-fragment of NogoA
T1 sequence: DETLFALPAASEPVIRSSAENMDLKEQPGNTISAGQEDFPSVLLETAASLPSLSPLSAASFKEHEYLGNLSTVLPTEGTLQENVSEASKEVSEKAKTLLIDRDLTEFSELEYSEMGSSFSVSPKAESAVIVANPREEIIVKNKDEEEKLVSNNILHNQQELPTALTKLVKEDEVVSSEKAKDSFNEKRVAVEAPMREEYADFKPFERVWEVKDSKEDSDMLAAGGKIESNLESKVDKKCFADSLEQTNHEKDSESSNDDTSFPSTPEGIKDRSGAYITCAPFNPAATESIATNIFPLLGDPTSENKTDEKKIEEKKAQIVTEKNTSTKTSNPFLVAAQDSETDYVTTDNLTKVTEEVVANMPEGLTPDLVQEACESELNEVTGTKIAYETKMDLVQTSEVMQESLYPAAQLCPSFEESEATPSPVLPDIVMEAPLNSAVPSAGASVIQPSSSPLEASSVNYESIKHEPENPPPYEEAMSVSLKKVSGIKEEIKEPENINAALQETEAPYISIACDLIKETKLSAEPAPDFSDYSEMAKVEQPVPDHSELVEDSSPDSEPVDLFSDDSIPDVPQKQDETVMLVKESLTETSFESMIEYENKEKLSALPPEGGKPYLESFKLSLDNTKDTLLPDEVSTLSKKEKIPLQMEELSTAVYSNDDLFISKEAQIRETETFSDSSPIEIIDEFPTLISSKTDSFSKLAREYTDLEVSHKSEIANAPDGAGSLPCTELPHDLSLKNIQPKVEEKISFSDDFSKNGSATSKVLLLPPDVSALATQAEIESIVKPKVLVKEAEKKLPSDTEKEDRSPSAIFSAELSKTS
The experiment in a line: SPR (BIAcore), recombinant human NiG immobilised on a CM5 chip. As for the experimental part: The affinity of the mouse 6A3-IgG1 mAb, 6A3-IgG4 mAb, and of the 6A3 Fab were measured by surface plasmon resonance (SPR) using a BIAcore 2000 optical biosensor (Biacore, Uppsala, Sweden) according to the manufacture's instructions. Recombinant human NIG was covalently immobilized on a flow cell of a CM5 sensor chip using amine-coupling chemistry. Briefly; the carboxymethlyladed dextran matrix was activated by injecting 35 μl of a solution containing 0.025M NHS and 0.1M EDC. […] The deactivation of the remaining NHS-ester group was performed by injection of 35 μl of 1M ethanolamine hydrochloride (pH 8.5). The surface of the sensor chip was regenerated by injecting 5 μl 0.1M HCl. […] After each injection, the sensor chip surface was regenerated with the injection of 10 μl 0.1M HCl without loss of binding activity on the surface. The kinetic constants, ka and kd and the affinity constants KA and KD were evaluated using the BIAevaluations 3.0 software supplied by the manufacturer.
Affinity measurement in BIAcore: The kinetic and the affinity binding constants of the mouse 6A3-IgG1 mAb, 6A3-IgG4 mAb, and of the 6A3 derived monovalent Fab fragment to recombinant human NogoA were measured in real time using surface plasmon resonance (SPR) technology (Biacore). […]

B1: 6A3-IgG4 mAb (antibody, V domains shown)
VH: EVQLVESGGGLVQPGGSLRLSCAASGFTFSNYWMSWVRQAPGKGLEWVATIKQDGSQKNYVDSVKGRFTISRDNAKNSLYLRLNSLRAEDTAVYYCATELFDLWGRGSLVTVSS
VL: EIVLTQSPATLSLSPGERATLSCRASQSVSSYLAWYQQKPGQAPRLLIYDASNRATGIPARFSGSGSGTDFTLTISSLEPEDFAVYYCQQRSNWPITFGQGTKLEIKR
notes: Recombinant human IgG4/kappa made in SP2/0 cells; also called 6A3-Ig4; 6A3-Ab
For B1, the Kd stood at 0.14 nM.

B2: 6A3 Fab monovalent fragment with his-tag (Fab, V domains shown, not shown: a dimerising Fc or GST; small tags and cut ends)
VH: B1 VH
VL: EIVLTQSPATLSLSPGERATLSCRASQSVSSYLAWYQQKPGQAPRLLIYDASNRATGIPARFSGSGSGTDFTLTISSLEPEDFAVYYCQQRSNWPITFGQGTRLEIK
modifications: A his-tag is present, but its chain and position are not stated, so it is left out.
notes: Made in E. coli; also called 6A3 derived monovalent Fab fragment; copies: 1 + 1
For the molecule B2, the Kd is 1.1 nM.
